# In US12173052B2:
# Assays:
# [1] = target: loop D variants (YU-2 gp120, residues 279gp120 and 280gp120)
# [2] = target: V5 variants (YU-2 gp120, residues 458gp120 and 459gp120)
Substance,"IC50, in vitro pseudovirus neutralization [1]","IC50, in vitro pseudovirus neutralization [2]"
NIH45-46^G54W(HC)S28Y(LC) (antibody),> 0.1 µg/mL,< 0.01 µg/mL
45-46m7 (45-46m2+HC W47V) (antibody),> 0.1 µg/mL,< 0.01 µg/mL
